Paper PMC6920965, “Plant Polyphenols Inhibit Functional Amyloid and Biofilm Formation in Pseudomonas Strains by Directing Monomers to Off-Pathway Oligomers” (Biomolecules, 2019)
pIC50: −log10 of the molar value. Blank lines part the entries; values can stand above or below the molecule they belong to.

Tests used:
[1] = target: T1, FapC (FapC-UK4) (Pseudomonas fluorescens, UniProt P0DXF5); assay: peptide array and SDS-PAGE blot with NBT staining; supported by ThT fibrillation, SEC and SAXS; type: binding
T1 construct: His-tagged FapC wt, 226-residue mature protein without the 24-residue signal peptide
T1 sequence (P0DXF5 25-250): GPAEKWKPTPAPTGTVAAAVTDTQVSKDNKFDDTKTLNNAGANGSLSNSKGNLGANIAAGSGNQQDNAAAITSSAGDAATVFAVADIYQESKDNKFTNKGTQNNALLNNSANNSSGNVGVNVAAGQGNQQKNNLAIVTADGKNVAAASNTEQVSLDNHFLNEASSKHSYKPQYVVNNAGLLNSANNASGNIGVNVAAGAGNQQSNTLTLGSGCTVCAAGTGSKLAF

[2] = target: FapC-PAO1 (Pseudomonas aeruginosa, UniProt Q9I2F0); assay: ThT fibrillation assay ([…] FapC-PAO1, […] polyphenol) and SDS-PAGE; type: biochemical
[3] = target: T2, FapC (FapC-UK4) (Pseudomonas fluorescens, UniProt P0DXF5); assay: ThT fibrillation assay of purified FapC; supported by CD, ATR-FTIR, SEC and SAXS of oligomers; type: biochemical
T2 construct: His-tagged FapC wt, mature protein (226 residues)

[4] = target: FapC from Pseudomonas sp. UK4, wild type (Pseudomonas sp. UK4); assay: SAXS; oligomers formed in the presence of PGG and purified by SEC; Nagg by indirect Fourier transformation; core-shell model
[5] = target: FapC from Pseudomonas sp. UK4, wild type (Pseudomonas sp. UK4); assay: SAXS; oligomers formed in the presence of EGCG and purified by SEC; Nagg by indirect Fourier transformation; core-shell model
[6] = target: FapC from Pseudomonas sp. UK4, wild type (Pseudomonas sp. UK4); assay: SAXS; freshly desalted sample without TCEP; aggregation number (Nagg) by indirect Fourier transformation
[7] = target: FapC from Pseudomonas sp. UK4, wild type (Pseudomonas sp. UK4); assay: SAXS; oligomers formed in the presence of baicalein and purified by SEC; Nagg by indirect Fourier transformation; core-shell model
[8] = target: FapC-UK4 mutant lacking all three imperfect repeats (∆R1R2R3) (Pseudomonas sp. UK4); assay: SAXS; oligomers formed in the presence of PGG and purified by SEC; Nagg by indirect Fourier transformation; core-shell model
[9] = target: FapC-UK4 mutant lacking all three imperfect repeats (∆R1R2R3) (Pseudomonas sp. UK4); assay: SAXS; freshly desalted sample without TCEP; aggregation number (Nagg) by indirect Fourier transformation

FapC-PAO1, sequence (Q9I2F0 25-340): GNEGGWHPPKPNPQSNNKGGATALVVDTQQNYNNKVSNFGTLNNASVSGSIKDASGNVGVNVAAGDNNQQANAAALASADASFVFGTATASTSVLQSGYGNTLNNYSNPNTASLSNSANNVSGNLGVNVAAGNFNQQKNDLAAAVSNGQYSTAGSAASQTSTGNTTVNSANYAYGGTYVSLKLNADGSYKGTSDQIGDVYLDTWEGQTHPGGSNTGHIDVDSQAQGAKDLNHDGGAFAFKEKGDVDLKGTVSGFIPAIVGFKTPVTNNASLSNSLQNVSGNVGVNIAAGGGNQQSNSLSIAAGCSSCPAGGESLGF

Molecule: O=C(O[C@@H]1Cc2c(O)cc(O)cc2O[C@@H]1c1cc(O)c(O)c(O)c1)c1cc(O)c(O)c(O)c1 [EGCG, epigallocatechin gallate]
peptide array and SDS-PAGE blot with NBT staining; supported by ThT fibrillation [1]: The intensity of EGCG binding varied significantly across the probed peptides (Figure 6C), showing particular affinity for regions
ThT fibrillation assay (30 μM FapC-PAO1, 100 μM polyphenol) and SDS-PAGE [2]: PGG, EGCG, and baicalein keep FapC monomeric or lead to off-pathway oligomers (Figure 4B).

Molecule: O=C(OC[C@H]1O[C@@H](OC(=O)c2cc(O)c(O)c(O)c2)[C@H](OC(=O)c2cc(O)c(O)c(O)c2)[C@@H](OC(=O)c2cc(O)c(O)c(O)c2)[C@@H]1OC(=O)c1cc(O)c(O)c(O)c1)c1cc(O)c(O)c(O)c1 [PGG, penta-O-galloyl-β-D-glucose]
pIC50 [3]: ~4.59
ThT fibrillation assay (30 μM FapC-PAO1, 100 μM polyphenol) and SDS-PAGE [2]: PGG, EGCG, and baicalein keep FapC monomeric or lead to off-pathway oligomers (Figure 4B).

Molecule: O=c1cc(-c2ccccc2)oc2cc(O)c(O)c(O)c12 [baicalein]
ThT fibrillation assay (30 μM FapC-PAO1, 100 μM polyphenol) and SDS-PAGE [2]: PGG, EGCG, and baicalein keep FapC monomeric or lead to off-pathway oligomers (Figure 4B).

stoichiometry N [4]: 7.6
stoichiometry N [5]: 6.7
stoichiometry N [6]: 4.4
stoichiometry N [7]: 6.7
Molecule: FapC from Pseudomonas sp. UK4, wild type (natural protein)

stoichiometry N [8]: 4.7
stoichiometry N [9]: 2.7
Molecule: FapC-UK4 mutant lacking all three imperfect repeats (∆R1R2R3) (domain or fragment)
